Results as given in US20020164707A1, “Calcitonin gene related peptide receptor” (Human Genome Sciences, Inc., priority 1994, published 2002).
No end group written: not given here.

Key:
[1] = target: T1, CGRP receptor (Homo sapiens, UniProt O60894+Q16602); assay: [125I]CGRP binding to membranes from 293 cells (clone 22) stably transformed with CGRP receptor cDNA; details: for rank order of potency in competition against [125I]CGRP binding: two to three independent experiments in duplicate
T1 construct: expressed in transfected cells; host or cells: Human Kidney 293 cells (transient)
T1 sequence (Q16602 23-461): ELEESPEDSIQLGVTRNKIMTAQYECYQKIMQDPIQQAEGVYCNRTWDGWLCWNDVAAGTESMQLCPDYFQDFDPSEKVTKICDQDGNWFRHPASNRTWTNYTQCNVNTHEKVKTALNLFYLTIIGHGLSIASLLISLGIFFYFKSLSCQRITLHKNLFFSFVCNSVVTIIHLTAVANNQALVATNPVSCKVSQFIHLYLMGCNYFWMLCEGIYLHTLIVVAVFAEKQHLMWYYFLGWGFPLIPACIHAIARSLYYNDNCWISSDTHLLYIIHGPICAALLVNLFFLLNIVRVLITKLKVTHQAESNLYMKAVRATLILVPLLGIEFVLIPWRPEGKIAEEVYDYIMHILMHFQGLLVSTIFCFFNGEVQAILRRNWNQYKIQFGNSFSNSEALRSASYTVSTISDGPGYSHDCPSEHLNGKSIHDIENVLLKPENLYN
T1 sequence (O60894 27-148): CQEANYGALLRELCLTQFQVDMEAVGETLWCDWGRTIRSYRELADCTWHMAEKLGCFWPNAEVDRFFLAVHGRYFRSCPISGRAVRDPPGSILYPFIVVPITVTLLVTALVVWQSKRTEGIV
Description: FIG. 8. Saturation binding. […] Equilibrium binding was measured at 25° C. for 60 min. […] Data are from one experiment representative of three independent experiments done in duplicate. (B) Scatchard plot of [^125I] CGRP binding.
FIG. 9. Competition binding profiles. Competition curves for representative CGRP analogs against [^125I]CGRP binding to membranes prepared from 293 cells (clone 22 cells) stably transformed with the CGRP receptor cDNA. Each curve is representative of two to three independent experiments, each carried out in duplicate.

[2] = target: human CGRP receptor polypeptide (recombinant, expressed in 293 cells from construct pCDNHCGRPr) (human) (UniProt Q16602); assay: cell-based or functional assay
Sequence of human CGRP receptor polypeptide (recombinant, expressed in 293 cells from construct pCDNHCGRPr) (human) (Q16602 22-461): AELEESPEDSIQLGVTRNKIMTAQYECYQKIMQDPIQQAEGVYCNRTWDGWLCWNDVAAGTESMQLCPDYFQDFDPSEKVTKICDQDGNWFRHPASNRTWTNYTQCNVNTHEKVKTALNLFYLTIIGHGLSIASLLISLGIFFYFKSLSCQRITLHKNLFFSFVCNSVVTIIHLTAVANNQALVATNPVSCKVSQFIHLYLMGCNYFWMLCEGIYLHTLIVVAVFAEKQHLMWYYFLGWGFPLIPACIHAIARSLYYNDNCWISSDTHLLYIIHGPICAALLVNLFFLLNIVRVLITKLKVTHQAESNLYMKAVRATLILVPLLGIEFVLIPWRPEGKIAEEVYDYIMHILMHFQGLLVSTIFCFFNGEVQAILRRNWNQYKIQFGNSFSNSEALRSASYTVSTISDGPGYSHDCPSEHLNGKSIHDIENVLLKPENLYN

| Compound | rank order of potency in competition against [125I]CGRP binding [1] | also measured |
| --- | --- | --- |
| CC(C)C[C@H](NC(=O)CNC(=O)[C@H](C)NC(=O)[C@H](CC(C)C)NC(=O)[C@H](CCCNC(=N)N)NC(=O)[C@H](Cc1cnc(I)[nH]1)NC(=O)[C@@H](NC(=O)[C@@H](NC(=O)[C@@H]1CSSC[C@H](NC(=O)[C@H](C)N)C(=O)N[C@@H](CC(=O)O)C(=O)N[C@@H]([C@@H](C)O)C(=O)N[C@@H](C)C(=O)N[C@@H]([C@@H](C)O)C(=O)N1)C(C)C)[C@@H](C)O)C(=O)N[C@@H](CC(C)C)C(=O)N[C@@H](CO)C(=O)N[C@@H](CCCNC(=N)N)C(=O)N[C@@H](CO)C(=O)NCC(=O)NCC(=O)N[C@H](C(=O)N[C@H](C(=O)N[C@@H](CCCCN)C(=O)N[C@@H](CC(N)=O)C(=O)N[C@@H](CC(N)=O)C(=O)N[C@@H](Cc1ccccc1)C(=O)N[C@H](C(=O)N1CCC[C@H]1C(=O)N[C@H](C(=O)N[C@@H](CC(N)=O)C(=O)N[C@H](C(=O)NCC(=O)N[C@@H](CO)C(=O)N[C@@H](CCCCN)C(=O)N[C@@H](C)C(=O)N[C@@H](Cc1ccccc1)C(N)=O)C(C)C)[C@@H](C)O)C(C)C)C(C)C)C(C)C [[^125I] CGRP] |  | Bmax (Scatchard plot, saturation binding) ([1]; equilibrium binding at 25° C. for 60 min): 89 fmol/mg protein |
| human CGRP (8-37) (from UniProt P06881 90-119) (peptide) |  | pA2 against CGRP-mediated cAMP accumulation in stably transformed 293 cells, 100 nM CGRP (8-37) [2]: 7.8 pA2 |
| human amylin: islet amyloid polypeptide (IAPP or amylin), human (KCNTATCATQRLANFLVHSSNNFGAILSSTNVGSNTY) | >>>> |  |
| human calcitonin (hCT): human calcitonin | >>>> |  |
| porcine vasoactive intestinal peptide (VIP): porcine vasoactive intestinal peptide | >>>> |  |
| salmon calcitonin (8-32): salmon calcitonin fragment (8-32) (VLGKLSQELHKLQTYPRTNTGSGTP; ends and bridges not checked) | >>>> |  |
